Source: patent publication US20150064134A1

Columns and labels:
Test in all cases: cell-based or functional assay
ACK1(h) (human) = ACK1(h) (human) (UniProt Q07912)
PDGFRα(D842V)(h) (human) = PDGFRα(D842V)(h) (human) (UniProt P16234)
FAK(h) (human) = FAK(h) (human) (UniProt Q05397)
TLK2(h) (human) = TLK2(h) (human) (UniProt Q86UE8)
Yes(h) (human) = Yes(h) (human) (UniProt P07947)
Met(Y1248D)(h) (human) = Met(Y1248D)(h) (human) (UniProt P08581)
TAK1(h) (human) = biological target: T1, TAK1(h) (human) (UniProt O43318)
T1 sequence (looked up): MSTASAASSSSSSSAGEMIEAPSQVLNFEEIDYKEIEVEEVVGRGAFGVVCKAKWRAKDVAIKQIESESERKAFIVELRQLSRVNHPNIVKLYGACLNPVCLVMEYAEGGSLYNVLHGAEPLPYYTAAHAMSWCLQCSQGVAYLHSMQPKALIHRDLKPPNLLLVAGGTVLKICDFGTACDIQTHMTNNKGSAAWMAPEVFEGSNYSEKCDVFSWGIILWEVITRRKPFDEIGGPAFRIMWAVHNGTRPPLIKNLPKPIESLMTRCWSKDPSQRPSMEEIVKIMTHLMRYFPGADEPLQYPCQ

Fgr(h) (human) = Fgr(h) (human) (UniProt P09769)
MKK7β(h) (human) = MKK7β(h) (human) (UniProt O14733)
MKK7β(h) (human), sequence (O14733 whole entry): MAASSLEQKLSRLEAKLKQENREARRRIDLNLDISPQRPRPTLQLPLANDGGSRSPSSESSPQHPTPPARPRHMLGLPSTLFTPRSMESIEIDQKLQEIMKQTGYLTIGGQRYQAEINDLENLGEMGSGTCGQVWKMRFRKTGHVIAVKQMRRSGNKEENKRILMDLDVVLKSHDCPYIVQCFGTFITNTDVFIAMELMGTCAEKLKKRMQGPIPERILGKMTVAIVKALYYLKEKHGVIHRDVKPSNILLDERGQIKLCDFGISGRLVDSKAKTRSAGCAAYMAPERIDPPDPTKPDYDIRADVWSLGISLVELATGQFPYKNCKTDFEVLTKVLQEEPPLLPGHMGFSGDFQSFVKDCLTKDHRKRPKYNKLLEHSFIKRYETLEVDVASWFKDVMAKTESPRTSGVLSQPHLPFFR

FGFR3(h) (human) = FGFR3(h) (human) (UniProt P22607)
FGFR3(h) (human), sequence (P22607 448-759 limits assumed): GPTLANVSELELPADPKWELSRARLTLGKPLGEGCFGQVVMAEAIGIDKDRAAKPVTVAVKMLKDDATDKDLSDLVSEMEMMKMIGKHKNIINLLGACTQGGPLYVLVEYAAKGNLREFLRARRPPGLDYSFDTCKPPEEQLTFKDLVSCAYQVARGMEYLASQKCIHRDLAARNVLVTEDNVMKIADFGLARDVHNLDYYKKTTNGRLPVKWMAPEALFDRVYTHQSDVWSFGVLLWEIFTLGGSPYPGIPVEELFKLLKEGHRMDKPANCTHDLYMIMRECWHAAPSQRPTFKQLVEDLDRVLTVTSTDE

IKKβ(h) (human) = biological target: T2, IKKβ(h) (human) (UniProt O14920)
T2 sequence (looked up): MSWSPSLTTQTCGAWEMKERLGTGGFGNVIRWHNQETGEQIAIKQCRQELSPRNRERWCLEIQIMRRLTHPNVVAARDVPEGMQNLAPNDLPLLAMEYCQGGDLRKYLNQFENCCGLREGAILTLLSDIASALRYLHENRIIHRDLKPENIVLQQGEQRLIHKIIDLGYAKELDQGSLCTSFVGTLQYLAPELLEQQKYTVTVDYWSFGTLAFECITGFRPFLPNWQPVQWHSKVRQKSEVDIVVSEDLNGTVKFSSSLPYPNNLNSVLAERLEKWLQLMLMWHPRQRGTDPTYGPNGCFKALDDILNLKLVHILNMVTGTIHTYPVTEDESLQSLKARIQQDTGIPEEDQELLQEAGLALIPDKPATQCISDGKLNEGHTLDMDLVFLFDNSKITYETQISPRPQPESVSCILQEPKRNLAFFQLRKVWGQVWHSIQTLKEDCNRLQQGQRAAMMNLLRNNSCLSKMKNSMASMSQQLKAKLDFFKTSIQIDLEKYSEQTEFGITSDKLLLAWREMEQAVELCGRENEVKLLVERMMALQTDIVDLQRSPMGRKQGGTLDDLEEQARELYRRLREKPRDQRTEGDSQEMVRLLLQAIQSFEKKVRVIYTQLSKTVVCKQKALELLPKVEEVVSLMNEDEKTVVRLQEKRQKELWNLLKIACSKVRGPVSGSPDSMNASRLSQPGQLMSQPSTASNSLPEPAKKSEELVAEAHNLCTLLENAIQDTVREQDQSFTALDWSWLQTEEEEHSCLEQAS

Met(Y1248H)(h) (human) = Met(Y1248H)(h) (human) (UniProt P08581)
Fms(Y969C)(h) (human) = biological target: T3, Fms(Y969C)(h) (human) (UniProt P07333)
T3 sequence (looked up): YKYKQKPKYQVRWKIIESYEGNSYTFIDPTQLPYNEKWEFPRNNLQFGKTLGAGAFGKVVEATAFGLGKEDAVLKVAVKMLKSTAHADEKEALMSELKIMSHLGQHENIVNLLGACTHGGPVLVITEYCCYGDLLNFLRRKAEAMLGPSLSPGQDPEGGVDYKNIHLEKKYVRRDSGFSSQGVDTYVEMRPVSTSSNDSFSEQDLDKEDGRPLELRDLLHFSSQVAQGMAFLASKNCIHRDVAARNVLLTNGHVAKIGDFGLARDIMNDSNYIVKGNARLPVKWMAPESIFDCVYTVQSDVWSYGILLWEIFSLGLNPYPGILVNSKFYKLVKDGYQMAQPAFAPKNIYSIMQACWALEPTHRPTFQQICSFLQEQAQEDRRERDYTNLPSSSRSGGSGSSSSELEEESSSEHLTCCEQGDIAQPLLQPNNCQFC

cKit(V560G)(h) (human) = cKit(V560G)(h) (human) (UniProt P10721)
cKit(V560G)(h) (human), sequence (P10721 544-976 V560G): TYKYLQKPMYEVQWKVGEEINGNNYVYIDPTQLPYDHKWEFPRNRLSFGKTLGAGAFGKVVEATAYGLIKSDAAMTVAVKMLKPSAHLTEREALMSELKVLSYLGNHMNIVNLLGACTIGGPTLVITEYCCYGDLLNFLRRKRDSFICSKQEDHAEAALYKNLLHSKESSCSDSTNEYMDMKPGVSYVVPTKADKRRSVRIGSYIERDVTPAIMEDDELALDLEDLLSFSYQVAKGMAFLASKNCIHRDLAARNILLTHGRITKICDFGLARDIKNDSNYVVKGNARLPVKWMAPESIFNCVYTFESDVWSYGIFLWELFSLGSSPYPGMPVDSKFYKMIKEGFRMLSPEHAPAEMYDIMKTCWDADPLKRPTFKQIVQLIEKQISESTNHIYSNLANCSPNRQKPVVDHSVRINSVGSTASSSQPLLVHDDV

PKCη(h) (human) = PKCη(h) (human) (UniProt P24723)
Snk(h) (human) = Snk(h) (human) (UniProt Q9NYY3)
Abl(H396P)(h) (human) = Abl(H396P)(h) (human) (UniProt P00519)
Abl(H396P)(h) (human), sequence (P00519 27-1130 H396P limits assumed): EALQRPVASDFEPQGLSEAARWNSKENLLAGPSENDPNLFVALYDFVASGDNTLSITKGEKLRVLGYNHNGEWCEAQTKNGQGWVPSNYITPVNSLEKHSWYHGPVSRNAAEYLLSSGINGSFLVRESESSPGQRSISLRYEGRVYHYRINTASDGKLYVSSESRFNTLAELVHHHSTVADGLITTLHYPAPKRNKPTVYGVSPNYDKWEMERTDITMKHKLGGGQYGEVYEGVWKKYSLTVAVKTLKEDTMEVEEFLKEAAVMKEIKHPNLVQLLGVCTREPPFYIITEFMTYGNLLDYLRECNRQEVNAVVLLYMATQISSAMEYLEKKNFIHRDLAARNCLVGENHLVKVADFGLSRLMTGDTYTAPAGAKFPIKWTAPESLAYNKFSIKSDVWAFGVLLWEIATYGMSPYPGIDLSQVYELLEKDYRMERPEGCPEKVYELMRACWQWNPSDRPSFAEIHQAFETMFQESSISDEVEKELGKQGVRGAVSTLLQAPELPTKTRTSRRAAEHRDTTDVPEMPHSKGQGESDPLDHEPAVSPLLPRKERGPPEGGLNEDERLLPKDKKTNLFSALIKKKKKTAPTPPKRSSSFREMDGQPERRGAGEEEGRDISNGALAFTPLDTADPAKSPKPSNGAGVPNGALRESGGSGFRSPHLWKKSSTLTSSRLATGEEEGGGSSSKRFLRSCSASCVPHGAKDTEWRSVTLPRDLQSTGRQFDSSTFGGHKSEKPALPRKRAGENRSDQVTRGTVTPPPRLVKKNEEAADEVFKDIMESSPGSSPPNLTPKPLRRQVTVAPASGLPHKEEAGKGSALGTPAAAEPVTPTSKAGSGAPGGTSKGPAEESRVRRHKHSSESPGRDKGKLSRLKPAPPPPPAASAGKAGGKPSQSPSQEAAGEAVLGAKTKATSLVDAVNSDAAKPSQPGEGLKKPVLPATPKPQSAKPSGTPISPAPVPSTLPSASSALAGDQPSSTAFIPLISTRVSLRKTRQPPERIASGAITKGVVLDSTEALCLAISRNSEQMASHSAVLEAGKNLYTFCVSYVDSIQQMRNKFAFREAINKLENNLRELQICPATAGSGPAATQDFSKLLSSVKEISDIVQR

Abl(T315I)(h) (human) = Abl(T315I)(h) (human) (UniProt P00519)
Abl(T315I)(h) (human), sequence (P00519 27-1130 T315I limits assumed): as the sequence (P00519 27-1130 H396P limits assumed) above, with T289I, P370H counted along it

Abl(M351T)(h) (human) = Abl(M351T)(h) (human) (UniProt P00519)
Abl(M351T)(h) (human), sequence (P00519 27-1130 M351T limits assumed): as the sequence (P00519 27-1130 H396P limits assumed) above, with M325T, P370H counted along it

Aurora-A(h) (human) = biological target: T4, Aurora-A(h) (human) (UniProt O14965)
T4 sequence (looked up): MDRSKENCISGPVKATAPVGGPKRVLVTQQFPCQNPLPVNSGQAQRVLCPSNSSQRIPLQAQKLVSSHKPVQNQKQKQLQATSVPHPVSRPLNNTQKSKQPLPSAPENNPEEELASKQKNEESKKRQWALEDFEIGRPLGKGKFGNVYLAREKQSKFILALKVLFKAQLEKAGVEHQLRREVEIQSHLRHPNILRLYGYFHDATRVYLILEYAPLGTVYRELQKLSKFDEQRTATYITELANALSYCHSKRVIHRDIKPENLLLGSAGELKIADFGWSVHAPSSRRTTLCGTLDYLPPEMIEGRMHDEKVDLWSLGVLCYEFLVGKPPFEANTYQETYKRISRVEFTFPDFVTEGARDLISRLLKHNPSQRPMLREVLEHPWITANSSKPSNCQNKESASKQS

JAK2(h) (human) = JAK2(h) (human) (UniProt O60674)
HIPK3(h) (human) = HIPK3(h) (human) (UniProt Q9H422)
Lck(h) (human) = Lck(h) (human) (UniProt P06239)
EGFR(T790M)(h) (human) = EGFR(T790M)(h) (human) (UniProt P00533)

PDGFRα(D842V)(h) (human), sequence (P16234 550-1089 D842V limits assumed): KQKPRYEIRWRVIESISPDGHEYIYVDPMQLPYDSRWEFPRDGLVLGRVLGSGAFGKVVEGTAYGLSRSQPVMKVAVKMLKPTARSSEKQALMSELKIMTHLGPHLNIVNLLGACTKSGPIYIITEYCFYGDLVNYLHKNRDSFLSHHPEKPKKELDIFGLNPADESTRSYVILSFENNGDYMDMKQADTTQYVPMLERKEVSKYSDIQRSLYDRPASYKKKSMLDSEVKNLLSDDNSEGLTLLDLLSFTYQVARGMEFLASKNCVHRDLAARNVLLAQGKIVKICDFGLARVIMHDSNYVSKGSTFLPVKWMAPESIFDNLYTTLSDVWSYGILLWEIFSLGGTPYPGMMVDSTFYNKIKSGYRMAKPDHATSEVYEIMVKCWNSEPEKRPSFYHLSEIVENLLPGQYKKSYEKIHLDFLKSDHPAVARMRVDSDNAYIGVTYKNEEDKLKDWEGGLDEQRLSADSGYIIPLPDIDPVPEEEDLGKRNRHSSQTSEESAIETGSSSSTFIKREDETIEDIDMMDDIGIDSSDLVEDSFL

% activity at 100 µM (ACK1(h) (human)) | % activity at 100 µM (PDGFRα(D842V)(h) (human)) | % activity at 100 µM (FAK(h) (human)) | % activity at 100 µM (TLK2(h) (human)) | % activity at 100 µM (Yes(h) (human)) | % activity at 100 µM (Met(Y1248D)(h) (human)) | % activity at 100 µM (TAK1(h) (human)) | % activity at 100 µM (Fgr(h) (human)) | % activity at 100 µM (MKK7β(h) (human)) | % activity at 100 µM (FGFR3(h) (human)) | % activity at 100 µM (IKKβ(h) (human)) | % activity at 100 µM (Met(Y1248H)(h) (human)) | % activity at 100 µM (Fms(Y969C)(h) (human)) | % activity at 100 µM (cKit(V560G)(h) (human)) | % activity at 100 µM (PKCη(h) (human)) | % activity at 100 µM (Snk(h) (human)) | % activity at 100 µM (Abl(H396P)(h) (human)) | % activity at 100 µM (Abl(T315I)(h) (human)) | % activity at 100 µM (Abl(M351T)(h) (human)) | % activity at 100 µM (Aurora-A(h) (human)) | also measured | Substance
95% | 118% | 96% | 151% | 14% | 31% | 177% | 47% | 94% | 0% | 84% | 63% | 91% | 124% | 98% | 131% | – | – | – | – | – | MMI-0400 (peptide)
– | – | – | – | 67% | – | 122% | 60% | 100% | – | 84% | – | 72% | – | – | – | 101% | 97% | 90% | 92% | % activity at 100 µM (JAK2(h) (human)): 133%; % activity at 100 µM (HIPK3(h) (human)): 93%; % activity at 100 µM (Lck(h) (human)): -2%; % activity at 100 µM (EGFR(T790M)(h) (human)): 100% | MMI-0300 (peptide)
64% | 170% | 94% | 133% | – | 218% | – | – | – | 10% | 71% | 126% | – | 198% | 45% | 122% | 51% | 16% | 61% | 110% | % activity at 100 µM (JAK2(h) (human)): 49%; % activity at 100 µM (HIPK3(h) (human)): 85%; % activity at 100 µM (Lck(h) (human)): 359%; % activity at 100 µM (EGFR(T790M)(h) (human)): 70% | MMI-0500 (peptide)
